Patent US20240092899A1 (CHIA TAI TIANQING PHARMACEUTICAL GROUP, published 2024)
Substitutions are numbered along the chain they refer to. Names may count otherwise.

Columns and labels:
human CD47 = target: T1, human CD47 (human, UniProt Q08722 19-139); experiment: SPR (Biacore 8K), antibody captured on chip, antigen injected
T1 construct: Bought antigen; also called ACROBiosystems Cat. No. CD7-H5227
Description: (§1) The affinity properties of the HZ5G11 monoclonal antibody, the HZ14A9 monoclonal antibody, MHL147-3322-IgG1-wt and MHL147-3322-IgG1-F118A bispecific antibodies were characterized by Biacore. The HZ5G11 monoclonal antibody, the HZ14A9 monoclonal antibody, MHL147-3322-IgG1-wt and MHL147-3322-IgG1-F118A bispecific antibodies were respectively immobilized onto a sensing chip by a capture method, and a human PDL1 (manufacturer: ACROBiosystems, Cat. No. PD1-H52H3) or human CD47 (manufacturer: ACROBiosystems, Cat. No. CD7-H5227) protein antigen solution with a certain concentration gradient was injected into the sample. Association/dissociation curves were acquired in real time by Biacore 8K Control Software 3.0, and data analysis was performed by Biacore Insight Evaluation Software 3.0. An association rate constant Ka, a dissociation rate constant Kd, and an equilibrium constant KD were obtained.

[1] = target: heavy chain HZ14A9VH-CH1-IgG1; experiment: co-expression in ExpiCHO-S, protein A purification, non-reducing SDS-PAGE, Coomassie stain
Method: (§2) After transfection, the cells were placed in ExpiCHO™ medium (manufacturer: Thermo, Cat No. A2910001), and expressed and cultured at 32° C. with 5% CO₂ at 130 rpm. On day 10, the cell supernatant was collected, and the target protein was purified by protein A affinity chromatography using AKTA Pure 25 L system from GE and MabSelect SuRe LX packing. After elution, the concentration of the eluted protein was measured using NanoDrop Lite (Thermo Fisher Scientific). The purity of the eluted protein was measured by SEC-HPLC, and the protein purity of the sample used for the test was not lower than 80%. A total amount of […] of protein was taken from each sample and subjected to non-reducing SDS-PAGE electrophoresis. The protein was stained with Coomassie brilliant blue, and the electrophoresis results were observed.
(§3) After the co-expression and purification of HZ5G11VH-Cα-IgG1 and HZ14A9VL-IgK as well as HZ14A9VH-Cα-IgG1 and HZ5G11VL-IgK, various products were generated. […] The results above indicate that there is some interaction between the CL domain and MHCICα, thereby promoting the production of light and heavy-mispaired products.

[2] = target: heavy chain HZ5G11VH-CH1-IgG1; experiment: co-expression in ExpiCHO-S, protein A purification, non-reducing SDS-PAGE
Method: as §2, §3

[3] = target: T2, heavy chain HZ5G11VH-Cα-IgG1; experiment: as above
T2 construct: HZ5G11 heavy chain whose CH1 is replaced by MHCICα
Method: as §2, §3

human PDL1 = target: T3, human PDL1 (human, UniProt Q9NZQ7 19-238); experiment: SPR (Biacore 8K), antibody captured on chip, antigen injected
T3 construct: Bought antigen; also called ACROBiosystems Cat. No. PD1-H52H3
Description: as §1

[4] = target: heavy chain HZ14A9VH-CH1-IgG1; experiment: co-expression in ExpiCHO-S, protein A purification, non-reducing SDS-PAGE
Method: as §2, §3

[5] = target: heavy chain HZ5G11VH-CH1-IgG1; experiment: co-expression in ExpiCHO-S, protein A purification, non-reducing SDS-PAGE, Coomassie stain
Method: as §2, §3

[6] = target: heavy chain HZ14A9VH-Cα-IgG1; experiment: co-expression in ExpiCHO-S, protein A purification, non-reducing SDS-PAGE
Method: as §2, §3

[7] = target: heavy chain HZ14A9VH-Cα-IgG1; experiment: co-expression in ExpiCHO-S, protein A purification, non-reducing SDS-PAGE, Coomassie stain

T3 sequence (Q9NZQ7 19-238 limits assumed): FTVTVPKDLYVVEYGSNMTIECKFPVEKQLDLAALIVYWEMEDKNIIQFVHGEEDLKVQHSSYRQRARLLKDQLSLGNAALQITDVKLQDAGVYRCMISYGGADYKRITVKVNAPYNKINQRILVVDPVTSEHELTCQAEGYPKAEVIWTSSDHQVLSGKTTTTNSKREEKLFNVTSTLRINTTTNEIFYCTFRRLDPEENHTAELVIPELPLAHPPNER
T1 sequence (Q08722 19-139 limits assumed): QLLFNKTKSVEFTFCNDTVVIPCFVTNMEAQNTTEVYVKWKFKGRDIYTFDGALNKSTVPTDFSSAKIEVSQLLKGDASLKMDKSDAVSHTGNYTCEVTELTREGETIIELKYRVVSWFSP

B1: HZ14A9 monoclonal antibody (antibody, V domains shown)
VH: QVQLVQSGAEVKKPGASVKVSCKVSGFNIEDDYIEWVRQAPGQGLEWMGRIDPANDKTKYAQKFQGRVTMTGDTSTNTVYMELSSLRSEDTAVYYCARPGLRRYYSMDYWGQGTLVTVSS
VL: DIQMTQSPSSLSASVGDRVTITCKASENVVSYVSWYQQKPGKAPKLLIYGASNRYTGVPSRFIGSGSSTDFTLTISSLQPEDFATYYCGQSYSYPLTFGQGTKLEIKR
notes: Humanized IgG1 kappa antibody from a mouse hybridoma; also called monoclonal IgG1K antibody HZ14A9 targeting human CD47
A Kd (human CD47) of 5.85 nM, a koff (human CD47) of 0.0143 s⁻¹ and a kon (human CD47) of 2.45e+06 M⁻¹ s⁻¹ were found for B1 in this work.

B2: light chain HZ14A9VL-IgK (other)
light: DIQMTQSPSSLSASVGDRVTITCKASENVVSYVSWYQQKPGKAPKLLIYGASNRYTGVPSRFIGSGSSTDFTLTISSLQPEDFATYYCGQSYSYPLTFGQGTKLEIKRTVAAPSVFIFPPSDEQLKSGTASVVCLLNNFYPREAKVQWKVDNALQSGNSQESVTEQDSKDSTYSLSSTLTLSKADYEKHKVYACEVTHQGLSSPVTKSFNRGEC
B2: binds [1]; binds [2]; binds [3].

B3: MHL147-3322-IgG1-wt (bispecific antibody)
heavy 1: not shown
light 1: DIQMTQSPSSLSASVGDRVTITCKASQSVSNDVAWYQQKPGKAPKLLIYYAANRYTGVPDRFSGSGYGTDFTFTISSLQPEDIATYFCQQDYTSPYTFGQGTKLEIKIQRTPKIQVYSCHPAENGKSNFLNCYVSGFHPSDIEVDLLKNGERIEKVEHSDLSFSKDWSFYLLYYTRFTPTEKDEYACRVNHVTLSQPKIVKWDRGP
heavy 2: not shown
light 2: B2 light
notes: IgG1 bispecific with LALA (L234A+L235A) and KIH mutations; The PD-L1 arm is modified with MHC-I elements; the CD47 arm is a Fab with wild-type kappa CL; also called anti-PDL1*CD47 bispecific antibody
A Kd (human CD47) of 3.31 nM, a koff (human CD47) of 0.0124 s⁻¹ and a kon (human CD47) of 3.75e+06 M⁻¹ s⁻¹ were found for B3 in this work. It also gave a Kd (human PDL1) of 0.304 nM, a koff (human PDL1) of 0.000562 s⁻¹ and a kon (human PDL1) of 1.85e+06 M⁻¹ s⁻¹.

B4: MHL147-3322-IgG1-F118A (bispecific antibody)
heavy 1: not shown
light 1: B3 light 1
heavy 2: not shown
light 2: B2 light with F118A
notes: IgG1 bispecific with LALA (L234A+L235A) and KIH mutations; The PD-L1 arm is modified with MHC-I elements; the CD47 arm is a Fab whose kappa CL carries F118A (EU numbering); also called MHL147-3322-F118A; anti-PDL1*CD47 bispecific antibody
A Kd (human CD47) of 5.26 nM, a koff (human CD47) of 0.0249 s⁻¹ and a kon (human CD47) of 4.74e+06 M⁻¹ s⁻¹ were found for B4 in this work. It also gave a Kd (human PDL1) of 0.384 nM, a koff (human PDL1) of 0.000606 s⁻¹ and a kon (human PDL1) of 1.58e+06 M⁻¹ s⁻¹.

B5: light chain HZ5G11VL-Cβ (other)
light: B3 light 1
notes: HZ5G11 light chain whose CL is replaced by MHCICβ
B5: no binding [4].

B6: light chain HZ14A9VL-Cβ (other)
light: DIQMTQSPSSLSASVGDRVTITCKASENVVSYVSWYQQKPGKAPKLLIYGASNRYTGVPSRFIGSGSSTDFTLTISSLQPEDFATYYCGQSYSYPLTFGQGTKLEIKIQRTPKIQVYSCHPAENGKSNFLNCYVSGFHPSDIEVDLLKNGERIEKVEHSDLSFSKDWSFYLLYYTRFTPTEKDEYACRVNHVTLSQPKIVKWDRGP
B6: no binding [2].

B7: light chain HZ5G11VL-IgK (other)
light: DIQMTQSPSSLSASVGDRVTITCKASQSVSNDVAWYQQKPGKAPKLLIYYAANRYTGVPDRFSGSGYGTDFTFTISSLQPEDIATYFCQQDYTSPYTFGQGTKLEIKRTVAAPSVFIFPPSDEQLKSGTASVVCLLNNFYPREAKVQWKVDNALQSGNSQESVTEQDSKDSTYSLSSTLTLSKADYEKHKVYACEVTHQGLSSPVTKSFNRGEC
B7: binds [5]; binds [6]; binds [4].

B8: HZ5G11VL-IgK-S114A (other)
light chain: B7 light with S114A
notes: Variant of m12; also called light chain HZ5G11VL-IgK with S114A (EU numbering) in the CL domain
B8: binds [7].

B9: HZ5G11VL-IgK-F116A (other)
light chain: B7 light with F116A
notes: Variant of m12; also called light chain HZ5G11VL-IgK with F116A (EU numbering) in the CL domain
B9: binds [7].

B10: HZ5G11VL-IgK-F118I (other)
light chain: B7 light with F118I
notes: Variant of m12; also called light chain HZ5G11VL-IgK with F118I (EU numbering) in the CL domain
B10: binds [7].

B11: HZ5G11 monoclonal antibody (antibody, V domains shown)
VH: QITLKESGPTLVKPTQTLTLTCTVSGFSLSTYGVHWIRQPPGKALEWLGVIWRGVTTDYNAAFMSRLTITKDNSKNQVVLTMNNMDPVDTATYYCARLGFYAMDYWGQGTLVTVSS
VL: DIQMTQSPSSLSASVGDRVTITCKASQSVSNDVAWYQQKPGKAPKLLIYYAANRYTGVPDRFSGSGYGTDFTFTISSLQPEDIATYFCQQDYTSPYTFGQGTKLEIKR
notes: Humanized IgG1 kappa antibody from a mouse hybridoma; also called monoclonal IgG1K antibody HZ5G11 targeting human PD-L1
A Kd (human PDL1) of 0.282 nM, a koff (human PDL1) of 0.000427 s⁻¹ and a kon (human PDL1) of 1.51e+06 M⁻¹ s⁻¹ were found for B11 in this work.
